# Assay results: the RNAGym collection of RNA variant scans (doi:10.1101/gr.219683.116)
# B1: mRNA-splicing (parent)
# chain: AGUUGCUGCUGGGAGCUCCAGCACAGUGAAAUGGACAGAAGGGCAGAGCAA
# Variants of: B1
# Assay: exon inclusion enrichment index; higher = more inclusion; WT1 exon 5 minigene, HEK293
row,Variant,exon inclusion enrichment index
1,G5C C6A U7C G8A U10A G28C A29G,0.241
2,G5C C6A U7C G8A U10A G28C A29U,0.0485
3,G5C C6A U7C G8A U10A G28C A29C,0.0814
4,G5C C6A U7C G8A U10A G33C G34C,0.0275
5,G5C C6A U7C G8A U10A G33C G34A,0.0324
6,G5C C6A U7C G8A U10A G33C G34U,0.0659
7,G5C C6A U7C G8A U10A G26A U27G,0.258
8,G5C C6A U7C G8A U10A G26A U27C,0.555
9,G5C C6A U7C G8A U10A G26A U27A,0.131
10,G5C C6A U7C G8A U10A A47U G48C,0.0757
11,G5C C6A U7C G8A U10A A47U G48U,0.111
12,G5C C6A U7C G8A U10A A47U G48A,0.071
13,G5C C6A U7C G8A U10A G11C G12A,0.0929
14,G5C C6A U7C G8A U10A G11C G12U,0.0425
15,G5C C6A U7C G8A U10A G11C G12C,0.382
16,G5C C6A U7C G8A U10A C36U A37U,0.0725
17,G5C C6A U7C G8A U10A C36U A37C,0.0938
18,G5C C6A U7C G8A U10A C36U A37G,0.111
19,G5C C6A U7C G8A U10A C22U A23G,0.114
20,G5C C6A U7C G8A U10A C22U A23U,0.0622
21,G5C C6A U7C G8A U10A C22U A23C,0.0379

row,Variant,exon inclusion enrichment index
1,G5C C6A U7C G8A U10A C36U,0.0372
2,G5C C6A U7C G8A U10A C36G,0.0563
3,G5C C6A U7C G8A U10A C36A,0.0935
4,G5C C6A U7C G8A U10A G41U G42U,0.0854
5,G5C C6A U7C G8A U10A G41U G42A,0.0336
6,G5C C6A U7C G8A U10A G41U G42C,0.369
7,G5C C6A U7C G8A U10A A37C G38U,0.0457
8,G5C C6A U7C G8A U10A A37C G38C,0.176
9,G5C C6A U7C G8A U10A A37C G38A,0.149
10,G5C C6A U7C G8A U10A G28A A29U,0.0236
11,G5C C6A U7C G8A U10A G28A A29G,0.0244
12,G5C C6A U7C G8A U10A G28A A29C,0.0469
13,G5C C6A U7C G8A U10A G26A,0.156
14,G5C C6A U7C G8A U10A G26C,0.141
15,G5C C6A U7C G8A U10A G26U,0.091
16,G5C C6A U7C G8A U10A A31G U32C,0.646
17,G5C C6A U7C G8A U10A A31G U32G,0.0429
18,G5C C6A U7C G8A U10A A31G U32A,0.854
19,G5C C6A U7C G8A U10A G21A,0.0465
20,G5C C6A U7C G8A U10A G21U,0.0631
21,G5C C6A U7C G8A U10A G21C,0.0715

row,Variant,exon inclusion enrichment index
1,G5C C6A U7C G8A U10A A39G,0.0326
2,G5C C6A U7C G8A U10A A39U,0.00393
3,G5C C6A U7C G8A U10A A39C,0.0137
4,G5C C6A U7C G8A U10A G13C A14C,0.145
5,G5C C6A U7C G8A U10A G13C A14U,0.136
6,G5C C6A U7C G8A U10A G13C A14G,0.278
7,G5C C6A U7C G8A U10A G41A G42A,0.101
8,G5C C6A U7C G8A U10A G41A G42U,0.105
9,G5C C6A U7C G8A U10A G41A G42C,0.264
10,G5C C6A U7C G8A U10A G43A,0.595
11,G5C C6A U7C G8A U10A G43U,0.0948
12,G5C C6A U7C G8A U10A G43C,0.238
13,G5C C6A U7C G8A U10A G13A A14C,0.899
14,G5C C6A U7C G8A U10A G13A A14U,0.645
15,G5C C6A U7C G8A U10A G13A A14G,0.424
16,G5C C6A U7C G8A U10A C19G A20C,0.111
17,G5C C6A U7C G8A U10A C19G A20G,0.0527
18,G5C C6A U7C G8A U10A C19G A20U,0.0711
19,G5C C6A U7C G8A U10A C24A A25G,0.156
20,G5C C6A U7C G8A U10A C24A A25U,0.146
21,G5C C6A U7C G8A U10A C24A A25C,0.742

row,Variant,exon inclusion enrichment index
1,G5C C6A U7C G8A U10A A45C G46A,0.0623
2,G5C C6A U7C G8A U10A A45C G46U,0.0352
3,G5C C6A U7C G8A U10A A45C G46C,0.0869
4,G5C C6A U7C G8A U10A G15U C16A,0.0461
5,G5C C6A U7C G8A U10A G15U C16U,0.0659
6,G5C C6A U7C G8A U10A G15U C16G,0.018
7,G5C C6A U7C G8A U10A C19A A20U,0.00249
8,G5C C6A U7C G8A U10A C19A A20G,0.00417
9,G5C C6A U7C G8A U10A C19A A20C,0.0294
10,G5C C6A U7C G8A U10A C16A U17G,0.0171
11,G5C C6A U7C G8A U10A C16A U17A,0.05
12,G5C C6A U7C G8A U10A C16A U17C,0.0679
13,G5C C6A U7C G8A U10A G38A,0.0452
14,G5C C6A U7C G8A U10A G38U,0.0342
15,G5C C6A U7C G8A U10A G38C,0.0648
16,G5C C6A U7C G8A U10A C16U U17G,0.0279
17,G5C C6A U7C G8A U10A C16U U17A,0.048
18,G5C C6A U7C G8A U10A C16U U17C,0.0203
19,G5C C6A U7C G8A U10A A45U G46C,0.0541
20,G5C C6A U7C G8A U10A A45U G46U,0.0227
21,G5C C6A U7C G8A U10A A45U G46A,0.0675
